Values quoted from earlier work as cited in PMC10772121.

Key:
[1] = target: KIR2DL2 (Homo sapiens) (UniProt P43627); experiment: ELISA
[2] = target: KIR2DS4 (Homo sapiens) (UniProt P43632); experiment: ELISA
Sequence of KIR2DS4 (Homo sapiens) (P43632 22-245): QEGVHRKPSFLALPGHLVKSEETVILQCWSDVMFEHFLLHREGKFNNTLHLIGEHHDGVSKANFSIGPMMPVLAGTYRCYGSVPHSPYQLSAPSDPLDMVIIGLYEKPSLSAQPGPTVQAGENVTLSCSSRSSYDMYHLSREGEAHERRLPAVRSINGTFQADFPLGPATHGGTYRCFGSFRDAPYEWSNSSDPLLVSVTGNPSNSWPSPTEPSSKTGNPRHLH

Sequence of KIR2DL2 (Homo sapiens) (P43627 22-245): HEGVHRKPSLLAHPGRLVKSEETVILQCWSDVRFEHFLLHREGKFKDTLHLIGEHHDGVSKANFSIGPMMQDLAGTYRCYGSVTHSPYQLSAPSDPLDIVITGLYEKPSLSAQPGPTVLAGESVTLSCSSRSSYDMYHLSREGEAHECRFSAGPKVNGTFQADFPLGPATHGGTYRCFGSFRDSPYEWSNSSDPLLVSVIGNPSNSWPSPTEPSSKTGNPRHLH

For Lirilumab, the Kd [1] is listed as 0.06 nM and the Kd [2] is listed as 20 nM.
